Molecular target: Cas9 (Streptococcus pyogenes, UniProt Q99ZW2 SEQ:1-1368)
Assay: DSF, no thermal shift with alien gRNA; 10 mM Hepes pH 7.5, 150 mM NaCl; 1 uM gRNA
Settings: gRNA scaffold; printed as encoding DNA
Procedure: DSF was also used to examine Cas9 molecule/gRNA molecule complexes. S. pyogenes Cas9 alone, S. pyogenes Cas9 with 1 μM S. pyogenes gRNA, and S. pyogenes Cas9 with 1 μM S. aureus gRNA were tested in H150 (10 mM Hepes pH 7.5, 150 mM NaCl). The DNA sequences encoding the gRNA molecules used in these experiments were: […]

Cas9, sequence (Q99ZW2 whole entry): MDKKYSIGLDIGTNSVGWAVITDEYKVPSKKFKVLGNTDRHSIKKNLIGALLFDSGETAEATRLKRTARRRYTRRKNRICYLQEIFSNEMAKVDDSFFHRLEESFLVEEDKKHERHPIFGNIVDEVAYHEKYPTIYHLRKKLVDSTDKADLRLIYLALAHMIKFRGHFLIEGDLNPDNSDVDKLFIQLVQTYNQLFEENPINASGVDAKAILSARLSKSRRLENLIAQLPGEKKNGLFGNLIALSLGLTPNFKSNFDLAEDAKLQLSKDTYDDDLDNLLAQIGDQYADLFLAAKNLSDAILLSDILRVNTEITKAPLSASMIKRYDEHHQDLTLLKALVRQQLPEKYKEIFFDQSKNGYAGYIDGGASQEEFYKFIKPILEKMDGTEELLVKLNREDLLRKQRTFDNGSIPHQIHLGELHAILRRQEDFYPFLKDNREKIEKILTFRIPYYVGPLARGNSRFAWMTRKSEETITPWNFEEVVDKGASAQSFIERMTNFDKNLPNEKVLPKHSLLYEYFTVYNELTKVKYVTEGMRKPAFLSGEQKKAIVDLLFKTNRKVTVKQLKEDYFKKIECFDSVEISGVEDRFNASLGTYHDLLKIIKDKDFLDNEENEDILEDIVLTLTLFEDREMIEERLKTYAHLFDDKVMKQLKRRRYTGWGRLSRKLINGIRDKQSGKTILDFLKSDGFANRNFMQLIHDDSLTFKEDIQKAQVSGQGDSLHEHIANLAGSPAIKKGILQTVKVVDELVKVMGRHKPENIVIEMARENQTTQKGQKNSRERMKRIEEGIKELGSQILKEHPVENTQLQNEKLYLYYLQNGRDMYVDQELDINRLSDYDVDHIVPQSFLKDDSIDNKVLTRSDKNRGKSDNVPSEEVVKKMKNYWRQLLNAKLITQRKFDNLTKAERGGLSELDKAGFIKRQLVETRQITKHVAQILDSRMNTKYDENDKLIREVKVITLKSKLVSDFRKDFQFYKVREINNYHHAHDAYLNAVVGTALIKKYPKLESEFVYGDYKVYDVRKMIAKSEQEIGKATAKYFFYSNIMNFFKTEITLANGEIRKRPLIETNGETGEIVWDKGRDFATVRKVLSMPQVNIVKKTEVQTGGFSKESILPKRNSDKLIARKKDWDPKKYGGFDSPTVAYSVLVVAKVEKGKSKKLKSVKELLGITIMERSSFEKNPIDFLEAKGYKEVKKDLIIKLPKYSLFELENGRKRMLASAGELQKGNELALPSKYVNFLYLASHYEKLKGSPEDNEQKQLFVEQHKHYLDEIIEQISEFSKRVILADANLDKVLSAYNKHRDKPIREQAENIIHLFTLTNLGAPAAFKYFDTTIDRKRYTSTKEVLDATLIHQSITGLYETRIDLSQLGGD

B1: S. aureus gRNA scaffold (ssRNA)
RNA: GUUUUAGUACUCUGGAAACAGAAUCUACUAAAACAAGGCAAAAUGCCGUGUUUAUCUCGUCAACUUGUUGGCGAGAUUUU
B1: no binding.

From US20180135109, “EVALUATION OF CAS9 MOLECULE/GUIDE RNA MOLECULE COMPLEXES” (EDITAS MEDICINE, INC., published 2018)
